Where two headings read alike, the source gives them in different places.
T1: human IL-36R on the cell surface (HEK-Blue IL-36 cells, HaCAT cells, human CD14+ monocytes) (human, UniProt Q9HB29 20-575)
T1 sequence (looked up): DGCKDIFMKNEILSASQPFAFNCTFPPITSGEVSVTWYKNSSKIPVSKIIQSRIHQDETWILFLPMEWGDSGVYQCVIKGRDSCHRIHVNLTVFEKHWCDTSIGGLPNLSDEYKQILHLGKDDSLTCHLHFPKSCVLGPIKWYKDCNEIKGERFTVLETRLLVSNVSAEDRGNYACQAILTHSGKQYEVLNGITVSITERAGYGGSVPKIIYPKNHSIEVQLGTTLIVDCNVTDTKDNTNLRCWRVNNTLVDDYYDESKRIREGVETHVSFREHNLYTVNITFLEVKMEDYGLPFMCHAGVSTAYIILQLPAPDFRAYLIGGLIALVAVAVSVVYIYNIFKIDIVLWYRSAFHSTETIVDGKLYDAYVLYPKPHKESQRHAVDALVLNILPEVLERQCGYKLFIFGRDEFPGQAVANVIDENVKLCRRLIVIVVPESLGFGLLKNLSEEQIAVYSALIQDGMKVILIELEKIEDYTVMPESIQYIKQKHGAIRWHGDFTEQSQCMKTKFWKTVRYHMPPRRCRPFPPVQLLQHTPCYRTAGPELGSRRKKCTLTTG

T2: hIL-36R-His (extracellular domain of human IL-36R with C-terminal His tag) (human (homo sapiens), UniProt Q9HB29 20-335)
T2 construct: also called human hIL-36R-His
T2 sequence: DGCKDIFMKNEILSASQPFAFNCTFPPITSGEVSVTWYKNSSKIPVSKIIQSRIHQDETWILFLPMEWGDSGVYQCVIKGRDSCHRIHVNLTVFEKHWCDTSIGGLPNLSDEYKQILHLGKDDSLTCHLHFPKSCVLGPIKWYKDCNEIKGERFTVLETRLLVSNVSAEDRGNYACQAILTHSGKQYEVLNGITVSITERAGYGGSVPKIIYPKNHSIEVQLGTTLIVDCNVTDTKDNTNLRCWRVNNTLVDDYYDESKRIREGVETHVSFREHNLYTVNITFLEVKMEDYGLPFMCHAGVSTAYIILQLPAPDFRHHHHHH


Columns and labels:
[1] = biological target: T1, human IL-36R on the cell surface …; test: cell-based or functional assay
[2] = biological target: T1, human IL-36R on the cell surface …; test: cell-based or functional assay; remark: listed apart in the source
[3] = biological target: T1, human IL-36R on the cell surface …; test: cell-based or functional assay; remark: listed apart in the source
[4] = biological target: T2, hIL-36R-His (extracellular domain of …); test: SPR (Biacore T200), antibody captured by anti-human Fc, hIL-36R-His as analyte, 1:1 model
[5] = biological target: T2, hIL-36R-His (extracellular domain of …); test: as above; remark: listed apart in the source

IC50 for inhibiting IL-36γ-induced hIL-8 secretion by human monocytes [1] [nM]	IC50 for inhibiting IL-36α from inducing hIL-8 secretion by HaCAT cells [2] [nM]	IC50 for inhibiting IL-36β from inducing hIL-8 secretion by HaCAT cells [2] [nM]	IC50 for inhibiting IL-36γ from inducing hIL-8 secretion by HaCAT cells [2] [nM]	IC50 for inhibiting IL-36α from inducing hIL-8 secretion by HaCAT cells [3] [nM]	IC50 for inhibiting IL-36β from inducing hIL-8 secretion by HaCAT cells [3] [nM]	IC50 for inhibiting IL-36γ from inducing hIL-8 secretion by HaCAT cells [3] [nM]	Kd [4] [nM]	koff [4] [s⁻¹]	kon [4] [M⁻¹ s⁻¹]	Kd [5] [nM]	koff [5] [s⁻¹]	kon [5] [M⁻¹ s⁻¹]	Binder
0.0288	0.0939	0.114	0.682	0.0433	0.172	0.642	2.56	7.39e-05	28800	–	–	–	Spesolimab (antibody, V domains shown, Made in house from the variable regions of US9023995B2 as a whole IgG1m3 subtype antibody (control)) VH: QVQLVQSGAEVKKPGASVKVSCKASGYSFTSSWIHWVKQAPGQGLEWMGEINPGNVRTNYNENFRNKVTMTVDTSISTAYMELSRLRSDDTAVYYCTVVFYGEPYFPYWGQGTLVTVSS VL: QIVLTQSPGTLSLSPGERATMTCTASSSVSSSYFHWYQQKPGQAPRLWIYRTSRLASGVPDRFSGSGSGTDFTLTISRLEPEDAATYYCHQFHRSPLTFGAGTKLEIK
–	0.508	0.511	3.65	–	–	–	–	–	–	1.65	5.4e-05	32800	R72B7VH+L36E9VK (antibody, V domains shown, also called R72B7VH+L36E9VK monoclonal antibody) VH: QVQLVQSGAEVKKPGASVKVSCKASGYSFTSSWIHWVKQAPGQGLEWMGEINPGNVRSNYNENFRNKVTMTVDTSISTAYMELSRLRSDDTAVYYCTVINYGEPYFASWGQGTLVTVSS VL: EIVLTQSPGTLSLSPGERATLSCRASQSVIGSYLAWYQQKPGQAPRLLIYSASKLASGIPDRFSGSGSGTDFTLTISRLEPEDFAVYYCQQDTRYPITFGQGTKVEIK
–	–	–	–	–	–	–	–	–	–	11.4	9.94e-05	8690	R49E11VH-h3+L36E9VK (antibody, V domains shown) VH: QVQLVQSGAEVKKPGASVKVSCKASGYSFTSSWIHWVRQAPGQGLEWMGEINPGSGRSNYNENFQGRVTMTVDTSISTAYMELSRLRSDDTAVYYCTVVFYGEPYFPFWGQGTLVTVSS VL: EIVLTQSPGTLSLSPGERATLSCRASQSVIGSYLAWYQQKPGQAPRLLIYSASKLASGIPDRFSGSGSGTDFTLTISRLEPEDFAVYYCQQDTRYPITFGQGTKVEIK
